Reference: the supplement of paper PMC9170038

Test system: K4 kissing-loop RNA reporter
Assay: apparent KD of K4 kissing-loop reporter; higher = weaker reporter binding
Details: Eterna round: R107
Procedure: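 RNA-MaP round R107: designed RNA switches with theophylline, tryptophan, arginine or FMN aptamers are transcribed on-chip within common flanks. They are titrated with a labelled K4 kissing-loop RNA reporter in RNA-MaP buffer (100 mM Tris pH 7.5, 80 mM KCl, 4 mM MgCl2), without ligand or with the indicated ligand. Median apparent KD per design.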

[1] = input ligand: theophylline 20 uM
[2] = input ligand: tryptophan 2.4 mM
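Further: bound reporter read as fluorescence of individual clusters on recovered sequencing chips by microscopy, with normalized cluster intensities fitted with a binding model.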

Sequence	apparent KD of K4 kissing-loop reporter (input ligand: FMN 200 uM) [nM]	apparent KD of K4 kissing-loop reporter (input ligand: arginine 13.2 mM) [nM]	apparent KD of K4 kissing-loop reporter (input ligand: none) [nM]	apparent KD of K4 kissing-loop reporter [1] [nM]	apparent KD of K4 kissing-loop reporter [2] [nM]
UCCUGCAAUCUGCCACGAAAGUGGGUUGAUACCAGAGUCGAAAGACUCCCUUGGCAGCGAGUGAUGUUCGUUGCAGGUAAAUAAA [MatMod 8 - Jieux - Exclusion - Theophylline A]	194	163	200	180	168
UCCUGCACGGUCGAUACCAGCCUAUGCAGUGAUGUUGUAAGGUUGUCACUUUAGUACGAAGGCCCUUGGCAGCGAUGAUGUAACA [theeternabot_exclusion_KL_Theo_B_41]	601	470	604	504	464
UCGAUAGCCAGCGAUACCAGCCCAGUGAUGUUGGGCACAUGGUUGCGGGAAAUCCUAUUGGGCCCUUGGCAGCGCUUGCAUGGGU [Anbixeza]	127	118	119	107	110
UCGGAGGGAGCGGCCGCCACUGUAUUACCUCGACGAACGCCGGUUUUCAUGAAGUGAUGUUUCGCCAGGACCGGGCUAAUCUGAG [theeternabot_exclusion_KL_Trp_B_46]	244	202	235	217	206
UCGGCAAAGUCGGCCGCCACUCCGGGCCCUAUAAAUGGGCGCAGUGAUGUUGCGGCUAGGCCUCUGAGGACCGGGACUUUGUAAA [Atordied]	185	63.1	54.5	61.7	219
UCUGUUGUAUAUGAUACCAGCAGUGAGAGAUGAGAAGUAUAGUGAUGUUAUAUGAGUGAAUGCCCUUGGCAGCGUGUGCGUGUGG [SSTheophylB.aD]	101	112	94	134	87.5
UGAACCCGGUCGGCCGCCACUCUGAGAACCAUCGCCCUACGUGCAGUGAUGUUGUACCUAAUGAGGAGGACCGGGACUGGGCGGC [theeternabot_sameState_KL_Trp_B_36]	316	277	360	204	223
UGAACUGUCUGCGAUACCAGCUAAGGAGUGAUGUUCCGGCUCGACGAAACGUCGAGCCAUAGCCCUUGGCAGCGCAGACAGUUCA [#28 K4 Theophylline B Same State]	387	160	334	721	272
UGACAUUGCUCAGAUACCAGACCUGAGGAUCACCCGGGUGCCAAAACGUACUAAAUAAAGGUCCCUUGGCAGCUGAGCAAUGUCU [TheoBX 13]	56.9	43.7	65.5	49.5	89.5
UGACUACAAAAGGAAUAAUCCUAGUGAUGUUAGGAUAUGCUGAUAAGCAGAAGGAACGGAGAUCGAAAGAUCUCAAAUGUAGUCU [whbob_Ex_FMNA__2th191]	153	89.8	82.9	112	86
UGACUGGACUGAAGGAGCGCGCGAGACAAAGUCUCGAACUCCUAGUGAUGUUAGGAAAUAACGCAGGUAGGUCGCAGUCUAGUCU [ArgBS 10 #SwitchBubble #StaticStem #DoubleMagnet]	225	190	243	209	241
UGACUGGACUGAAGGAGCGCGCGAGACAAAGUCUCGAACUCUUAGUGAUGUUAGGAAAUAACGCAGGUAGGUCGCAGUCUAGUCU	381	247	332	473	408
UGACUGGACUGAAGGAGCGCUAAAACUCCUAGUGAUGUUGGGAAAACGAGACAAAGUCUCGAGCAGGUAGGUCGCAGUCUAGUCU [ArgBS 22 #SwitchBubble #StaticStem]	302	196	253	278	258
UGACUGGACUGAAGGAGCGCUAAACUCCUAGUGAUGUUAGGAUAACGAGACAAAGUCUCGAGGCAGGUAGGUCGCAGUCUAGUCU	128	134	131	137	128
UGACUUGCCUGAGGAUAUCUAGGAUAUGGAUAAAAUAAAAUAAUAAUGGAGUGAUGUUCCAGAAGGAGAGAAGGCAGGUAAGUCU [KL-XFMN-B16 #DoubleAptamer #SwitchBubble]	190	116	96.1	170	84
UGAUACCAGACGGCCGCCACUCCCGUAAGUCAAAGACUUACCAAGAGUAUCGUCCAGUGAUGUUGGAGGACCGGGUCUGGUAUCU [FiskerMod 9 - Jieux - Exclusion - Tryptophan B]	376	321	330	320	829
UGAUACCAGACGGCCGCCACUCUUGCAGUCAAAGACUGCUAAAAGGAAAUCGUCCAGUGAUGUUGGAGGACCGGGUCUGGUAUCU [TrypBX 15 #SwitchBubble #Palindromic #StaticStem]	1420	774	1370	774	736
UGAUACCAGACUGAUACCAGCCACAGAGUCAAAGACUCUGAAAGGGAAACCAGUGAUGUUGGCCCUUGGCAGCAGUCUGGUAUCU [TheoBX 23 #SwitchBubble #StaticStem]	502	412	493	382	431
UGAUACCAGACUGAUACCAGCCAGUGAUGUUGGCAAUAUCCAAGGUGAGUCAAAGACUCGGGCCCUUGGCAGCAGUCUGGUAUCU [TheoBX 7 #SwitchBubble #StaticStem]	146	139	148	152	135
UGAUAGGACAGAAGGAGCGGAAGUGAUGUUUCCAAAAGGGUAAGGUGUCAAAAGACACCCUUCCAGGUAGGUCGCUGUCCUAUCU	93.9	109	99	111	86.3
UGAUAGGACAGAAGGAGCGGGAGUGAUGUUCCCAAAAGUAUAAGGUGUCAAAAGACACCCUCCCAGGUAGGUCGCUGUCCUAUCU	153	330	353	302	367

Sequence	apparent KD of K4 kissing-loop reporter (input ligand: FMN 200 uM) [nM]	apparent KD of K4 kissing-loop reporter (input ligand: arginine 13.2 mM) [nM]	apparent KD of K4 kissing-loop reporter (input ligand: none) [nM]	apparent KD of K4 kissing-loop reporter [1] [nM]	apparent KD of K4 kissing-loop reporter [2] [nM]
UGAUAGGACAGAAGGAGCGGUAGUGAUGUUACCAAAAGGGUAAGGUGUCAAAAGACACCCUGCCAGGUAGGUCGCUGUCCUAUCU	103	89.9	99.1	83.4	87
UGAUUUAACUGAAGGAGCGGCAAUUGAUAAGGAAAUAUAGUGAUGUUAUAUAAGAGAGAGAGCCAGGUAGGUCGCAGAGGGAGGA [ExArgB.H]	182	105	110	154	145
UGCUUUAUCAGAAGGAGCGGGUUGUUCAUAAUAAUAAUCAGUGAUGUUGAUAUAUGAUGAUUCCAGGUAGGUCGCUGAUAUAGCU [KL-XARG-B2]	283	214	273	256	238
UGGAGUUGACGAAAAGUCAACUCCCGAGAAGGAGCGGACGAAAGUCCAGGUAGGUCGCUCGCUACCAGUGAUGUUGGUACGUAAA	107	143	116	139	101
UGGAUAUAGUGAUGUUAUAUAGAGAUGGAUACCAGCAGAGAGAAUUGCCCUUGGCAGCCGAAAGAAGUAUCAUUAGAGAAGAAUG [ExTheophyl.Ai]	208	180	253	214	210
UGGAUUAGGACGGCCGCCACUACGCUGGCAUGAGUGAUGUUCUAAGGCUUGUCAAAGAUCCAGAGUAGGACCGGGUCCAAUGACU [theeternabot_exclusion_KL_Trp_B_38]	293	225	275	261	271
UGGUUAAGCAGUGAUGUUGCAAGUGAUGAUACCAGUUAAGAAGAGAACCCUUGGCAGCAUAAAGUGCGCUCUGAUGAGUGUGCUU [whbob_SS_Theo_A_w55]	165	130	146	176	165
UGUACCGAGUCAGGAUAUACCGUCGAAAGACGAAAUGGAGUGAUGUUCCUUAAACUGCGAAAGCAGGUAGAAGGGACUUGGUACU [FmnBS 30 #SwitchBubble #StaticStem #DoubleMagnetSystem]	165	263	267	263	262
UGUACCGAGUCAGGAUAUAGCGUCGAAAGACGAAAUGGAGUGAUGUUCCUUAAACUGCGAAAGCAGCUAGAAGGGACUUGGUACU [FmnBS 28 #SwitchBubble #StaticStem #DoubleMagnetSystem]	153	234	246	250	239
UGUACCGAGUCAGGAUAUGGCGUCGAAAGACGAAUCCUAGUGAUGUUAGUGAUCUGCGAAAGCAGUCCAGAAGGGACUUGGUACU [FmnBS 26 U50]	199	321	334	307	344
UGUAUGUGAUGUGAUACCAGUGAAGAGCCAGUGAUGUUGGUAGAACUGGUAUAUAAAUAACACCCUUGGCAGCACAAUCACGUAC [whbob_Ex_Theo_B_sa99]	289	243	286	320	314
UGUAUGUGAUUUGAUACCAGACCAGCUGGUGGUACCUGAGUGAUGUUCGGGAUGGUUUGGGUCCCUUGGCAGCAAAUCGCAUACU [KL-SSTheoB20]	251	144	164	148	170
UGUCAUGGAAACAUGAACGUUAAAAUAAAUCGAGGACCGGUACGGCCGCCACUCGUAUAGCGGUCAGUGAUGUUGACUGUAGUAC [KL-SSTryp-A form2 sub11 #dotplot2>1]	107	110	109	109	101
UGUCAUUGGUCGGCCGCCACUAUAAUAAAAGAGUGAUGUUCUAAAAGACGGACAAAAGUCUGUCGUAGGACCGGGACCGAUGACU [TrypBS 26 #SwitchBubble #StaticStem]	1100	551	805	916	455
UGUCAUUGGUCGGCCGCCACUAUAUAAAAGAGUGAUGUUCUAAAGACGGAUCGAAAGAUCUGUCAUAGGACCGGGACCGAUGACU [TrypBS 20 #SwitchBubble #StaticStem]	293	204	308	294	1140
UGUCAUUGGUCGGCCGCCACUUCAAGGUCAAAGACCAGAGUGAUGUUCUUGCACAAAGUGCUUAGAAGGACCGGGACCGAUGACU [TrypBS 13 #SwitchBubble #K4Middle]	738	467	625	413	622
UGUCAUUGGUCGGCCGCCACUUCGUAUGAAGUGAUGUUUUGUAGAUUGUGUUGAAAGGUAUGGUGAAGGACCGGGACCGAUGACU [FiskerMod 22 - Jieux - Same State - Tryptophan B]	516	266	765	203	508
UGUCAUUGGUCUGAUACCAGAAGAAUCUGGAGUGAUGUUCCAAGUCGAUCAAAAGAUCGCUUCCCUUGGCAGCAGACCGAUGACU [TheoBS 24 #SwitchBubble 13 #StaticStem]	315	291	300	188	298
UGUCAUUGGUCUGAUACCAGCUUGAUCGGAAAACGAUCUGCUGGAGUGAUGUUCCAAUAAAGCCCUUGGCAGCAGACCGAUGACU [TheoBS 7 #SwitchBubble #StaticStem]	854	569	991	961	763
UGUCAUUGGUCUGAUACCAGUUGAUAAACUGGAGUGAUGUUCCAAGAACGAGAAACUCGCAACCCUUGGCAGCAGACCGAUGACU [TheoBS 17 #SwitchBubble 13 #StaticStem]	302	66.9	170	400	132
UGUGUUGUUUUGAUGUUUGUUGUAAAAUGGCAGGAUAUCGUAGAGGCGAGAAGGGCUUUUAUGCGUUAUGAGUGAUGUUUGUAGG [zvvczmullin]	338	283	352	340	263
